Measured values: article PMC6449974
Read-outs that look alike come from different tables or passages of the source.

What was measured:
[1] = biological target: cross-linked self-assembled CA tubes (CA A14C/E45C co-assembled with CA K158C-AF488) (HIV-1); assay: TIRF fluorescence microscopy binding assay; cross-linked CA tubes held on the cover slip by an anti-p24 antibody; CypA 1-50 uM (1 uM AF647-CypA plus unlabelled CypA) flowed in; 50 mM Tris pH 8, 150 mM NaCl; equilibrium binding model on the CypA:CA molar ratio
[2] = biological target: biotinylated CA K158C (unassembled HIV-1 CA) (HIV-1); assay: SPR; Biacore S200; biotinylated CA K158C or biotinylated CA hexamer immobilised on streptavidin-modified CM5 chip; CypA injected at 1.1-72.8 uM; 10 mM HEPES pH 8, 0.005% Tween 20, 2 mM EDTA, 150 mM NaCl; equilibrium analysis, single experiments
[3] = biological target: biotinylated cross-linked CA hexamer (CA A14C/E45C/W184A/M185A) (HIV-1); assay: as above
[4] = biological target: native HIV-1 capsid (wild type CA lattice of authentic viral cores) (HIV-1 (pNL4.3-iGFP-ΔEnv and psPAX2)); assay: TIRF fluorescence microscopy binding assay
[5] = biological target: native HIV-1 capsid (wild type CA lattice of authentic viral cores) (HIV-1 (pNL4.3-iGFP-ΔEnv and psPAX2)); assay: TIRF fluorescence microscopy binding assay; remark: listed apart in the source

Substance | Kd [1] | stoichiometry N (molar ratio of CypA:CA when saturated) [1] | Kd [2] | Kd [3] | Kd [4] | Kd [5] | stoichiometry N ([5]; scale: CypA loops occupied at saturation per capsid) | stoichiometry N ([5]; scale: CypA molecules bound per capsid at saturation)
CypA A25D (enzyme) | 17.2 µM | 0.39 | 22.6 µM | 20.8 µM | 8.7 µM | 11.2 µM | 877 | 688
CypA K27D (enzyme) | 17.7 µM | 0.24 | 28.5 µM | 21.7 µM | – | – | – | –
CypA K30D (enzyme) | 17 µM | 0.39 | 37.9 µM | 35.7 µM | – | – | – | –
CypA P29K (enzyme) | 16.4 µM | 0.32 | 20.6 µM | 21 µM | – | – | – | –
